In patent CN117843802A (BEILAI PHARMACEUTICAL CO LTD, dated 2024):

Experiments:
[1] = biological target: T1, Human IL-17A重组蛋白 (IL-17A-His) (Human, UniProt Q16552 24-155, biotinylated (Biotin-IL-17A-His) in the ELISA of paragraph 259; site not stated); experiment: ELISA: antibody coated at 2 ug/mL, Biotin-IL-17A-His titrated from 10 ug/mL (5-fold, 7 points), HRP-Streptavidin
T1 construct: Recombinant antigen expressed in E. coli BL21 from pET28a, purified on a nickel column; also called IL-17A抗原蛋白; IL-17抗原
T1 sequence: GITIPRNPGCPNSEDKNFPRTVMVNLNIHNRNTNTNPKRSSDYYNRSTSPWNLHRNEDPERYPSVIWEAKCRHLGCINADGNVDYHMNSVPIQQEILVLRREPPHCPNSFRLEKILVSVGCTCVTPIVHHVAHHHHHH

Human IL-17A蛋白 = biological target: T2, Human IL-17A蛋白 (Human, UniProt Q16552 24-155); experiment: cell-based or functional assay
T2 sequence (looked up): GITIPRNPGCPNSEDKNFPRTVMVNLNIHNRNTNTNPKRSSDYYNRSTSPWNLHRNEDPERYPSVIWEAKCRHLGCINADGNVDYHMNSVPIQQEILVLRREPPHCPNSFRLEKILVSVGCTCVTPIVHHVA

- EC50 [1]: 10.1 µg/mL
- IC50, luciferase activity of 293F-IL-17RA-IL-17Rc-ACT1-NFκB-Luc reporter cells (Human IL-17A蛋白): 1.36 µg/mL
B1: Ixekizumab (antibody, human IgG4 S228P, kappa, V domains shown)
VH: QVQLVQSGAEVKKPGSSVKVSCKASGYSFTDYHIHWVRQAPGQGLEWMGVINPMYGTTDYNQRFKGRVTITADESTSTAYMELSSLRSEDTAVYYCARYDYFTGTGVYWGQGTLVTVSS
VL: DIVMTQTPLSLSVTPGQPASISCRSSRSLVHSRGNTYLHWYLQKPGQSPQLLIYKVSNRFIGVPDRFSGSGSGTDFTLKISRVEAEDVGVYYCSQSTHLPFTFGQGTKLEIKR
notes: Made in-house: variable regions cloned into pcDNA3.4-hIgG4 and pcDNA3.4-hIgKc, expressed in 293F cells, purified on Protein A; also called 阳性对照抗体; 阳性抗体
